{
  "source": "patent US20190016794A1",
  "about": "(Boehringer Ingelheim, published 2019)",
  "key": {"recombinant human IL23 [1]": {"target": "T1, recombinant human IL23 (human, UniProt P29460 23-328)", "T1 sequence 1": "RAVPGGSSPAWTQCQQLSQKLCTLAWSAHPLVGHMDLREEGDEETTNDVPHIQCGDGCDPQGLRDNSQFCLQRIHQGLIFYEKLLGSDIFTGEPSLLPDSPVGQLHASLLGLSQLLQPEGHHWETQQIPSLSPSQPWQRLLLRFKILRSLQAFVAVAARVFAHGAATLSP", "T1 sequence 2": "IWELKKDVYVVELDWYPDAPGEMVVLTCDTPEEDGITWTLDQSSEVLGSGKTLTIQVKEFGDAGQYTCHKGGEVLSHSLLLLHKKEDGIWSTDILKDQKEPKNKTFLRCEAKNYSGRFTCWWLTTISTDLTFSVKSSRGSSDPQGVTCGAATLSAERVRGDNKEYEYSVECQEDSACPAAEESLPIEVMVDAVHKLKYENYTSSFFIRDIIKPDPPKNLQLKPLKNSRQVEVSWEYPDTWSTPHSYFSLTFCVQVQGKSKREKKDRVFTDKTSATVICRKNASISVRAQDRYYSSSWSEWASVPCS", "assay": "cell-based or functional assay"}, "[2]": {"target": "T2, recombinant cynomolgus IL23 (cynomolgus)", "T2 chain 1": "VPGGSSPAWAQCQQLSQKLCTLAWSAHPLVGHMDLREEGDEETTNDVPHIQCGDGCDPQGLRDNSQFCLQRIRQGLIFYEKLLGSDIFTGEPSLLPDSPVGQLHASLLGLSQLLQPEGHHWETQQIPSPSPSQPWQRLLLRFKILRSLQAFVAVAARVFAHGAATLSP", "T2 chain 2": "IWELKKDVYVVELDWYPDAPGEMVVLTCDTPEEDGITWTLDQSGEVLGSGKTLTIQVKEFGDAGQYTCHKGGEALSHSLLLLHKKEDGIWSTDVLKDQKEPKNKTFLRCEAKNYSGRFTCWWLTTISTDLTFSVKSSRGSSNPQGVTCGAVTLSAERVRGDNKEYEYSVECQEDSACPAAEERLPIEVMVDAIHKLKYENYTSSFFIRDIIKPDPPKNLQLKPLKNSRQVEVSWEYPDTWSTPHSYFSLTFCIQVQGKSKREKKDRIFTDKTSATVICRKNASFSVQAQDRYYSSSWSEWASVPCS", "assay": "cell-based or functional assay"}, "recombinant human IL23 [3]": {"target": "T1, recombinant human IL23", "assay": "cell-based or functional assay", "remark": "listed apart in the source"}, "recombinant human IL23 [4]": {"target": "T1, recombinant human IL23", "assay": "cell-based or functional assay", "remark": "listed apart in the source"}, "recombinant human IL23 [5]": {"target": "T1, recombinant human IL23", "assay": "cell-based or functional assay", "remark": "listed apart in the source"}, "recombinant human IL23 [6]": {"target": "T1, recombinant human IL23", "assay": "cell-based or functional assay", "remark": "listed apart in the source"}, "recombinant human IL23 [7]": {"target": "T1, recombinant human IL23", "assay": "cell-based or functional assay", "remark": "listed apart in the source"}, "membrane bound TNF-alpha [8]": {"target": "T3, membrane bound TNF-alpha", "T3 construct": "whole, on cells; also called mTNF; membrane expressed TNF-alpha", "T3 sequence (P01375 whole entry)": "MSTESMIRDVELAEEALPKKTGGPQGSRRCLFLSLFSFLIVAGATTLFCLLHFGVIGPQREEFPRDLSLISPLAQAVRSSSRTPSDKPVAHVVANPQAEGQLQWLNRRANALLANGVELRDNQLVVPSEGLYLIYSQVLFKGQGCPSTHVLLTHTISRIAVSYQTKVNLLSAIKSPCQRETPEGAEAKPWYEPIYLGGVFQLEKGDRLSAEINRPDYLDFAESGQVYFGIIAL", "assay": "flow cytometry, mTNF-transfected Jurkat cells (geomean)", "method": "(§1) All reagents were prepared in flow cytometry staining buffer (BioLegend). Membrane expressed TNF-alpha transfected cell lines (Jurkat and CHO) and parental cell lines were harvested from tissue culture vessels, washed, counted and resuspended to 1×10̂6 cells/ml in flow cytometry staining buffer. One hundred microliters of the cell suspension was added to 96 well microtiter plates and placed on ice. Titrations of test compounds were prepared and 50 uL was added to the cells. After sixty minute incubation on ice, the cell+test compounds were washed and 50 uL of a secondary antibody (Jackson ImmunoResearch) was added. The samples were incubated in the dark, at 4 C, for 60 minutes, followed by washes. After a final wash the cells were resuspended in 60 uL of fixative (BD Bioscience). Median fluorescence was determined for each sample in a flow cytometer and plotted versus the concentration of the test sample. EC₅₀ values were calculated using the 4 Parameter Logistic enabled by the Excel add-in XLfit (Activity Base software, ID Business Solutions, Ltd.)."}, "membrane bound TNF-alpha [9]": {"target": "T3, membrane bound TNF-alpha", "assay": "flow cytometry, mTNF-transfected CHO cells (geomean)", "method": "as §1"}, "cynomolgus TNF-alpha": {"target": "cynomolgus TNF-alpha (cynomolgus, UniProt P79337 77-233, limits assumed)", "sequence (P79337 77-233 limits assumed)": "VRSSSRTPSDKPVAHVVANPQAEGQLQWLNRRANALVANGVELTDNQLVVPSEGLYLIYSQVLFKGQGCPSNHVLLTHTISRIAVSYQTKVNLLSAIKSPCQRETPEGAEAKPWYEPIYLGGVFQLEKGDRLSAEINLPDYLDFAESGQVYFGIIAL", "assay": "cell-based or functional assay"}},
  "note": "“And” between values parts separate entries of the source, which are not always exact repeats. Equal entries are not always repeated.",
  "data": [
    {"binder": "Control Antibody 3 (IL23 monoclonal antibody) (antibody, V domains shown) VH: QVQLVQSGAEVKKPGSSVKVSCKASGYTFTDQTIHWMRQAPGQGLEWIGYIYPRDDSPKYNENFKGKVTITADKSTSTAYMELSSLRSEDTAVYYCAIPDRSGYAWFIYWGQGTLVTVSS VL: DIQMTQSPSSLSASVGDRVTITCKASRDVAIAVAWYQQKPGKVPKLLIYWASTRHTGVPSRFSGSGSRTDFTLTISSLQPEDVADYFCHQYSSYPFTFGSGTKLEIK", "values": [
      {"measurement": "huIL23 MSA IC50", "setting": "recombinant human IL23 [1]", "result": 0.053, "unit": "nM"},
      {"measurement": "huIL23 MSA IC90", "setting": "recombinant human IL23 [1]", "result": 0.35, "unit": "nM"},
      {"measurement": "CynoIL23 MSA IC50", "setting": "[2]", "result": 0.017, "unit": "nM"},
      {"measurement": "CynoIL23 MSA IC90", "setting": "[2]", "result": 0.24, "unit": "nM"},
      {"measurement": "Dual Phospho DB-pSTAT3 IC50", "setting": "recombinant human IL23 [3]", "result": 89, "unit": "pM"},
      {"measurement": "Dual Phospho DB-pSTAT3 IC90", "setting": "recombinant human IL23 [3]", "result": 230, "unit": "pM"},
      {"measurement": "IC50, IL-23-dependent STAT3 activation (DB-STAT3Luc10 luciferase)", "setting": "recombinant human IL23 [4]", "result": "0.0965 nM and 0.104 nM and 0.0803 nM"},
      {"measurement": "GEOMEAN IC50, IL-23-dependent STAT3 activation (luciferase)", "setting": "recombinant human IL23 [5]", "result": 0.0931, "unit": "nM"},
      {"measurement": "GEOMEAN IC90, IL-23-dependent STAT3 activation (luciferase)", "setting": "recombinant human IL23 [5]", "result": 0.191, "unit": "nM"},
      {"measurement": "hIL23 pSTAT3 DB assay IC50", "setting": "recombinant human IL23 [6]", "result": 160, "unit": "pM"},
      {"measurement": "hIL23 pSTAT3 DB assay IC90", "setting": "recombinant human IL23 [6]", "result": 310, "unit": "pM"},
      {"measurement": "IL23A pSTAT3 (MG) IC50", "setting": "recombinant human IL23 [7]", "result": 35, "unit": "pM"},
      {"measurement": "IL23A pSTAT3 (MG) IC90", "setting": "recombinant human IL23 [7]", "result": 140, "unit": "pM"}
    ]},
    {"binder": "Compound G (bispecific antibody) chain 1: EIVLTQSPATLSLSPGERATLSCRASQSVYSYLAWYQQKPGQAPRLLIYDASNRATGIPARFSGSGSGTDFTLTISSLEPEDFAVYYCQQRSNWPPFTFGPGTKVDIKGGGSGGGGQVQLVQSGAEVKKPGSSVKVSCKASGYTFTDQTIHWMRQAPGQGLEWIGYIYPRDDSPKYNENFKGKVTITADKSTSTAYMELSSLRSEDTAVYYCAIPDRSGYAWFIYWGQGTLVTVSSLGGGSGASTKGPSVFPLAPSSKSTSGGTAALGCLVKDYFPEPVTVSWNSGALTSGVHTFPAVLQSSGLYSLSSVVTVPSSSLGTQTYICNVNHKPSNTKVDKRVEPKSCDKTHTCPPCPAPEAAGGPSVFLFPPKPKDTLYITREPEVTCVVVDVSHEDPEVKFNWYVDGVEVHNAKTKPREEQYNSTYRVVSVLTVLHQDWLNGKEYKCKVSNKALPAPIEKTISKAKGQPREPQVYTLPPSREEMTKNQVSLTCLVKGFYPSDIAVEWESNGQPENNYKTTPPVLDSDGSFFLYSKLTVDKSRWQQGNVFSCSVMHEALHNHYTQKSLSLSPGK chain 2: DIQMTQSPSSLSASVGDRVTITCKASRDVAIAVAWYQQKPGKVPKLLIYWASTRHTGVPSRFSGSGSRTDFTLTISSLQPEDVADYFCHQYSSYPFTFGSGTKLEIKGGGSGGGGQVQLVESGGGVVQPGRSLRLSCAASGFIFSSYAMHWVRQAPGNGLEWVAFMSYDGSNKKYADSVKGRFTISRDNSKNTLYLQMNSLRAEDTAVYYCARDRGIAAGGNYYYYGMDVWGQGTTVTVSSLGGGSGRTVAAPSVFIFPPSDEQLKSGTASVVCLLNNFYPREAKVQWKVDNALQSGNSQESVTEQDSKDSTYSLSSTLTLSKADYEKHKVYACEVTHQGLSSPVTKSFNRGEC", "values": [
      {"measurement": "IC50, IL-23-dependent STAT3 activation (DB-STAT3Luc10 luciferase)", "setting": "recombinant human IL23 [4]", "result": 0.22, "unit": "nM"},
      {"measurement": "IC90, IL-23-dependent STAT3 activation (DB-STAT3Luc10 luciferase)", "setting": "recombinant human IL23 [4]", "result": 1.15, "unit": "nM"},
      {"measurement": "First test IC50, IL-23-dependent STAT3 activation (luciferase)", "setting": "recombinant human IL23 [5]", "result": 0.187, "unit": "nM"},
      {"measurement": "GEOMEAN IC50, IL-23-dependent STAT3 activation (luciferase)", "setting": "recombinant human IL23 [5]", "result": 0.203, "unit": "nM"},
      {"measurement": "GEOMEAN IC90, IL-23-dependent STAT3 activation (luciferase)", "setting": "recombinant human IL23 [5]", "result": 0.831, "unit": "nM"}
    ]},
    {"binder": "Control antibody 2 (TNFa monoclonal antibody) (antibody, V domains shown, Monoclonal antibody) VH: QVQLVESGGGVVQPGRSLRLSCAASGFIFSSYAMHWVRQAPGNGLEWVAFMSYDGSNKKYADSVKGRFTISRDNSKNTLYLQMNSLRAEDTAVYYCARDRGIAAGGNYYYYGMDVWGQGTTVTVSS VL: EIVLTQSPATLSLSPGERATLSCRASQSVYSYLAWYQQKPGQAPRLLIYDASNRATGIPARFSGSGSGTDFTLTISSLEPEDFAVYYCQQRSNWPPFTFGPGTKVDIK", "values": [
      {"measurement": "EC50", "setting": "membrane bound TNF-alpha [8]", "result": 0.23, "unit": "nM"},
      {"measurement": "EC50", "setting": "membrane bound TNF-alpha [9]", "result": 0.31, "unit": "nM"},
      {"measurement": "HeLa IL8 Cyno-TNF IC50", "setting": "cynomolgus TNF-alpha", "result": 0.28, "unit": "nM"},
      {"measurement": "HeLa IL8 Cyno-TNF IC90", "setting": "cynomolgus TNF-alpha", "result": 1.2, "unit": "nM"}
    ]}
  ]
}
